Here are results for 5 molecules from US20180362620A1 (Genentech, published 2018).

Experiment [1] deals with recombinant FcγRIIIa (V158) (R&D Systems, cat#4325-FC-050) (UniProt P08637). As to the kind of experiment: Biacore binding to recombinant FcγRIIIa (V158), low density. For orientation: In SPR one partner is held on a chip, and binding of the other changes the refractive index at the surface.
Experiment [2] shares this target. The experiment is described as follows: Biacore binding to recombinant FcγRIIIa (V158), high density.
In experiment [3] the target is T1, recombinant FcγRIIIa (V158) (R&D Systems, cat#4325-FC-050) (UniProt P08637 17-208). As to the kind of experiment: Biacore binding to recombinant FcγRIIIa.
In experiment [4] the target is T1, recombinant FcγRIIIa (V158) (R&D …). As to the kind of experiment: Biacore binding to recombinant FcγRIIIa (V158), low density.
For experiment [5] the target is unchanged. The experiment is described as follows: Biacore binding to recombinant FcγRIIIa (V158), high density.
The target is the same in experiment [6]. The experiment is described as follows: Biacore, FcγRIIIa (V158) binding (summary table; equals the 9th table, row 11, column 4).

Residue numbers refer to the chain shown, from its start.

T1 sequence (P08637 17-208 F176V limits assumed): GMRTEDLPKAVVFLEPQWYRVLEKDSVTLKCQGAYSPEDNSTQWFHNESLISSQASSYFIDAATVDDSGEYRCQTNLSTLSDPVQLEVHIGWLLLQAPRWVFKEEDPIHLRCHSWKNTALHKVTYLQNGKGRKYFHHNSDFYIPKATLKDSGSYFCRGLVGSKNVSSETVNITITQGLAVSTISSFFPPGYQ
recombinant FcγRIIIa (V158) (R&D Systems, cat#4325-FC-050) (UniProt P08637), sequence (P08637 17-208 F176V limits assumed): as above

For Herceptin CHO (antibody), the Kd is 82 nM in experiment [1] and 67 nM in experiment [2].

B1: humanized 13C6 variant h13C6a expressed in FUT8KO CHO cells (antibody)
heavy: EVQLVESGPALVKPTQTLTLTCTFSGFSLSTSGVGVGWIRQPPGKALEWLALIWWDDDKYYNPSLKSRLTISKDTSKNQVVLTMTNMDPVDTATYYCARRDPFGYDNAMGYWGQGTLVTVSSASTKGPSVFPLAPSSKSTSGGTAALGCLVKDYFPEPVTVSWNSGALTSGVHTFPAVLQSSGLYSLSSVVTVPSSSLGTQTYICNVNHKPSNTKVDKKVEPKSCDKTHTCPPCPAPELLGGPSVFLFPPKPKDTLMISRTPEVTCVVVDVSHEDPEVKFNWYVDGVEVHNAKTKPREEQYNSTYRVVSVLTVLHQDWLNGKEYKCKVSNKALPAPIEKTISKAKGQPREPQVYTLPPSREEMTKNQVSLTCLVKGFYPSDIAVEWESNGQPENNYKTTPPVLDSDGSFFLYSKLTVDKSWQQGNVFSCSVMHEALHNHYTQKSLSLSPGK
light: DIQMTQSPSSLSASVGDRVTITCKASQNVGTAVAWYQQKPGKAPKLLIYSASNRYTGVPSRFSGSGSGTDFTLTISSLQPEDFATYYCQQYSSYPLTFGQGTKVEIKRTVAAPSVFIFPPSDEQLKSGTASVVCLLNNFYPREAKVQWKVDNALQSGNSQESVTEQDSKDSTYSLSSTLTLSKADYEKHKVYACEVTHQGLSSPVTKSFNRGEC
notes: copies: 2 + 2
As to B1, in experiment [3], the “fold improvement of binding against CHO cell expressed material” value is approximately 3 fold. Also, the results for the dissociation constant Kd in experiment [4] and in experiment [5] were 38 nM and 27 nM, respectively.

B2: humanized 13C6 variant h13C6a expressed in CHO cells (antibody)
heavy: B1 heavy
light: B1 light
notes: copies: 2 + 2
Turning to B2, the equilibrium dissociation constant (Kd) in experiment [4] amounted to 117 nM; in experiment [5] it was 113 nM.

B3: humanized 13C6 variant h13C6i expressed in CHO cells (antibody)
heavy: B1 heavy
light: B1 light with A43S, Y87F
notes: copies: 2 + 2
Regarding B3, the Kd worked out at 122 nM in experiment [4] and 111 nM in experiment [5].

B4: humanized 13C6 variant h13C6i expressed in FUT8KO CHO cells (antibody)
heavy: B1 heavy
light: B1 light with A43S, Y87F
notes: copies: 2 + 2
On to B4, for which the “fold improvement of binding against CHO cell expressed material” value in experiment [3] is approximately 3 fold. The Kd in experiment [4] was 36 nM; in experiment [5], 24 nM; in experiment [6], 24 nM.

In general, Kd refers to the equilibrium constant for the complex coming apart.
